The text below walks through data of the supplement of paper PMC9233669.

One data set relates to biotinyl-Phe-oxazolone. The experiment in a line: self-aminoacylation, catalytic enhancement (BFO) (fold over background); higher = more active; k-Seq, kA / k0A0; sequences stand for … in GGGAAUGGAUCCACAUCUACGAAUUC…UUCACUGCAGACUUGACGAAGCUG
Put shortly:
(§1)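 Mutagenized RNA pools (0.43 μM; 21-nt variable region) were treated with 2–1250 μM of each biotinyl-aminoacyl-oxazolone. Conditions were 50 μL HEPES/NaCl/KCl/MgCl2/CaCl2 buffer, 5% acetonitrile, pH 6.9–7.0, room temperature, 90 minutes. Catalytic enhancement, the median kA relative to the uncatalyzed rate, was derived from streptavidin capture, qPCR and Illumina sequencing.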

For another data set, the system named is biotinyl-Ile-oxazolone. The experiment in a line: self-aminoacylation, catalytic enhancement (BIO) (fold over background); higher = more active; k-Seq, kA / k0A0; sequences stand for … in GGGAAUGGAUCCACAUCUACGAAUUC…UUCACUGCAGACUUGACGAAGCUG
Put shortly: as §1

The test system of the next data set is biotinyl-Met-oxazolone. Kind of data set: self-aminoacylation, catalytic enhancement (BMO) (fold over background); higher = more active; k-Seq, kA / k0A0; sequences stand for … in GGGAAUGGAUCCACAUCUACGAAUUC…UUCACUGCAGACUUGACGAAGCUG
Put shortly: as §1

A further data set deals with biotinyl-Val-oxazolone. Kind of data set: self-aminoacylation, catalytic enhancement (BVO) (fold over background); higher = more active; k-Seq, kA / k0A0; sequences stand for … in GGGAAUGGAUCCACAUCUACGAAUUC…UUCACUGCAGACUUGACGAAGCUG
Put shortly: as §1

Another data set relates to biotinyl-Leu-oxazolone. The experiment in a line: self-aminoacylation, catalytic enhancement (BLO) (fold over background); higher = more active; k-Seq, kA / k0A0; sequences stand for … in GGGAAUGGAUCCACAUCUACGAAUUC…UUCACUGCAGACUUGACGAAGCUG
Put shortly:
as §1

Another data set deals with biotinyl-Trp-oxazolone. Kind of data set: self-aminoacylation, catalytic enhancement (BWO) (fold over background); higher = more active; k-Seq, kA / k0A0; sequences stand for … in GGGAAUGGAUCCACAUCUACGAAUUC…UUCACUGCAGACUUGACGAAGCUG
Put shortly: as §1

Fewer inactive variants are shown than the library holds.

With “CUUCACCUAGGUCAUCUGGUG [Fam2.2 aminoacylation ribozyme variant]”, the self-aminoacylation came to 4.76 in the data set on biotinyl-Phe-oxazolone; 1.58 with biotinyl-Ile-oxazolone; 1.79 in the data set on biotinyl-Met-oxazolone; 1.74 with biotinyl-Val-oxazolone; 2.25 in the data set on biotinyl-Leu-oxazolone; 2.15 in the data set on biotinyl-Trp-oxazolone.
For “CAGUUUGCUAAUAGUCUCAAG [Fam3.1 aminoacylation ribozyme variant]”, the self-aminoacylation with biotinyl-Phe-oxazolone was determined as 1.71; in the data set with biotinyl-Ile-oxazolone, 0.951; in the data set on biotinyl-Met-oxazolone, 0.711; with biotinyl-Val-oxazolone, 0.829; in the data set with biotinyl-Leu-oxazolone it was 1.09; with biotinyl-Trp-oxazolone, 0.993.
For “AUUCACCUAGUUCGUCGGGUG [Fam2.2 aminoacylation ribozyme variant]”, the self-aminoacylation was determined as 3.17 in the data set with biotinyl-Phe-oxazolone; 1.14 in the data set with biotinyl-Ile-oxazolone; 1.26 in the data set on biotinyl-Met-oxazolone; 1.23 in the data set on biotinyl-Val-oxazolone; 1.32 with biotinyl-Leu-oxazolone; 1.15 in the data set on biotinyl-Trp-oxazolone.
Regarding “CUACUUAAAACAAUCAGUCUG [Fam1A.1 aminoacylation ribozyme variant]”, the self-aminoacylation in the data set with biotinyl-Phe-oxazolone stood at 0.689; in the data set with biotinyl-Ile-oxazolone, 0.877; in the data set on biotinyl-Met-oxazolone it was 0.723; with biotinyl-Val-oxazolone, 0.915; in the data set on biotinyl-Leu-oxazolone, 0.715; in the data set with biotinyl-Trp-oxazolone, 0.512.
As to “AUUCACCUAGGGCAUCGGGAG [Fam2.2 aminoacylation ribozyme variant]”, the self-aminoacylation in the data set with biotinyl-Phe-oxazolone was found to be 0.472; in the data set with biotinyl-Ile-oxazolone, 1.07; in the data set on biotinyl-Met-oxazolone it was 0.855; in the data set on biotinyl-Val-oxazolone it was 1.04; in the data set on biotinyl-Leu-oxazolone, 1.1; with biotinyl-Trp-oxazolone it was 1.08.
As for “CUAGUUCAAACAAUAGGUCUG [Fam1A.1 aminoacylation ribozyme variant]”, the self-aminoacylation in the data set on biotinyl-Phe-oxazolone is 0.923; with biotinyl-Ile-oxazolone, 1.04; with biotinyl-Met-oxazolone, 0.949; with biotinyl-Val-oxazolone, 0.952; in the data set with biotinyl-Leu-oxazolone it was 1.09; in the data set with biotinyl-Trp-oxazolone, 0.721.
For “AAGUUUGCUAAUACUAGCAAG [Fam3.1 aminoacylation ribozyme variant]”, the self-aminoacylation with biotinyl-Phe-oxazolone was 0.734; with biotinyl-Ile-oxazolone it was 0.59; with biotinyl-Met-oxazolone, 0.798; in the data set with biotinyl-Val-oxazolone, 0.567; in the data set with biotinyl-Leu-oxazolone, 0.722; with biotinyl-Trp-oxazolone, 0.476.
As for “AAGGGUGCUAAUAGUCGCAAG [Fam3.1 aminoacylation ribozyme variant]”, the self-aminoacylation in the data set with biotinyl-Phe-oxazolone is 6.2; in the data set with biotinyl-Ile-oxazolone it was 1.72; in the data set with biotinyl-Met-oxazolone it was 1.74; with biotinyl-Val-oxazolone, 1.36; in the data set on biotinyl-Leu-oxazolone, 1.5; with biotinyl-Trp-oxazolone it was 2.93.
In the case of “CUAACCCUGGUCAUCGAGUGA [Fam2.1 aminoacylation ribozyme variant]”, the self-aminoacylation turned out to be 11.8 in the data set on biotinyl-Phe-oxazolone; 4.07 in the data set on biotinyl-Ile-oxazolone; 8.98 in the data set with biotinyl-Met-oxazolone; 4.44 with biotinyl-Val-oxazolone; 8.32 in the data set with biotinyl-Leu-oxazolone; 9.47 in the data set on biotinyl-Trp-oxazolone.
As to “CCACACUUCAAACUAUCGGUC [Fam1B.1 aminoacylation ribozyme variant]”, the self-aminoacylation is 1.09 with biotinyl-Phe-oxazolone; 0.976 in the data set on biotinyl-Ile-oxazolone; 0.781 in the data set on biotinyl-Met-oxazolone; 0.909 in the data set on biotinyl-Val-oxazolone; 0.83 in the data set with biotinyl-Leu-oxazolone; 0.882 in the data set with biotinyl-Trp-oxazolone.
As to “AUUCCCCUAGGUCAUCUGGUG [Fam2.2 aminoacylation ribozyme variant]”, the self-aminoacylation with biotinyl-Phe-oxazolone amounted to 107; in the data set with biotinyl-Ile-oxazolone, 10.6; in the data set on biotinyl-Met-oxazolone, 14.7; with biotinyl-Val-oxazolone, 9.58; with biotinyl-Leu-oxazolone, 18.8; in the data set with biotinyl-Trp-oxazolone, 15.3.
Take “CCACACUUCAAGCAAACGCUC [Fam1B.1 aminoacylation ribozyme variant]”: the self-aminoacylation in the data set on biotinyl-Phe-oxazolone amounted to 0.677; in the data set with biotinyl-Ile-oxazolone, 0.956; in the data set on biotinyl-Met-oxazolone, 1.41; in the data set on biotinyl-Val-oxazolone, 0.912; in the data set with biotinyl-Leu-oxazolone it was 1.01; in the data set with biotinyl-Trp-oxazolone, 1.37.
With “AGUACCCUGGUCGUCGAGUGA [Fam2.1 aminoacylation ribozyme variant]”, the self-aminoacylation was determined as 8.09 in the data set on biotinyl-Phe-oxazolone; 1.37 in the data set with biotinyl-Ile-oxazolone; 1.05 in the data set with biotinyl-Met-oxazolone; 1.24 in the data set on biotinyl-Val-oxazolone; 1.53 in the data set with biotinyl-Leu-oxazolone; 1.54 with biotinyl-Trp-oxazolone.
Consider “GCACAAUUCAAGCAAUCGGUC [Fam1B.1 aminoacylation ribozyme variant]”, for which the self-aminoacylation in the data set with biotinyl-Phe-oxazolone came out at 3.04; with biotinyl-Ile-oxazolone, 2.1; with biotinyl-Met-oxazolone it was 1.81; with biotinyl-Val-oxazolone it was 1.94; with biotinyl-Leu-oxazolone, 1.79; in the data set on biotinyl-Trp-oxazolone, 3.3.
In the case of “CUACUUCAUACAAUCGGACUG [Fam1A.1 aminoacylation ribozyme variant]”, the self-aminoacylation in the data set on biotinyl-Phe-oxazolone came out at 0.573; in the data set with biotinyl-Ile-oxazolone it was 0.751; in the data set with biotinyl-Met-oxazolone it was 0.418; in the data set with biotinyl-Val-oxazolone it was 0.676; in the data set with biotinyl-Leu-oxazolone, 0.609; in the data set with biotinyl-Trp-oxazolone, 0.387.
In the case of “ACUACCCUGGUAAUCGAGUGA [Fam2.1 aminoacylation ribozyme variant]”, the self-aminoacylation in the data set on biotinyl-Phe-oxazolone was found to be 43.4; in the data set with biotinyl-Ile-oxazolone it was 3.32; in the data set on biotinyl-Met-oxazolone it was 7.36; in the data set with biotinyl-Val-oxazolone, 3.16; in the data set on biotinyl-Leu-oxazolone it was 7.43; in the data set with biotinyl-Trp-oxazolone, 9.29.
As for “AUUAUCCUGGUCCUCGAGUGA [Fam2.1 aminoacylation ribozyme variant]”, the self-aminoacylation with biotinyl-Phe-oxazolone was determined as 21.9; in the data set on biotinyl-Ile-oxazolone, 2.4; in the data set on biotinyl-Met-oxazolone, 4.56; in the data set on biotinyl-Val-oxazolone, 2.33; in the data set with biotinyl-Leu-oxazolone it was 5.19; with biotinyl-Trp-oxazolone, 6.54.
Consider “AUUACUCAGGUCAUCGAGUGA [Fam2.1 aminoacylation ribozyme variant]”, for which the self-aminoacylation in the data set on biotinyl-Phe-oxazolone is 13.2; in the data set on biotinyl-Ile-oxazolone, 2.41; in the data set on biotinyl-Met-oxazolone, 3.58; in the data set with biotinyl-Val-oxazolone it was 2.57; in the data set with biotinyl-Leu-oxazolone, 3.72; with biotinyl-Trp-oxazolone, 4.11.
In the case of “AAGUUUGCUAAUAGUCGCAGG [Fam3.1 aminoacylation ribozyme variant]”, the self-aminoacylation was 2.2 in the data set on biotinyl-Phe-oxazolone; 1.29 in the data set on biotinyl-Ile-oxazolone; 1.31 with biotinyl-Met-oxazolone; 1.31 in the data set with biotinyl-Val-oxazolone; 1.38 in the data set on biotinyl-Leu-oxazolone; 1.45 with biotinyl-Trp-oxazolone.
“AUUAAUCUAGGUCAUCGGGUG [Fam2.2 aminoacylation ribozyme variant]”: the self-aminoacylation in the data set on biotinyl-Phe-oxazolone was determined as 15; with biotinyl-Ile-oxazolone, 2.73; with biotinyl-Met-oxazolone, 3.43; in the data set on biotinyl-Val-oxazolone it was 2.72; in the data set with biotinyl-Leu-oxazolone, 4.65; in the data set on biotinyl-Trp-oxazolone, 4.05.
Regarding “AUUCCCCAAGGUCAUCGGGUG [Fam2.2 aminoacylation ribozyme variant]”, the self-aminoacylation in the data set with biotinyl-Phe-oxazolone is 218; in the data set with biotinyl-Ile-oxazolone it was 15.9; in the data set on biotinyl-Met-oxazolone, 27; in the data set with biotinyl-Val-oxazolone, 14.8; with biotinyl-Leu-oxazolone, 31.1; with biotinyl-Trp-oxazolone, 20.9.
On to “GUUCACCUAGGUCAUCUGGUG [Fam2.2 aminoacylation ribozyme variant]”, for which the self-aminoacylation was 8.36 in the data set on biotinyl-Phe-oxazolone; 1.71 with biotinyl-Ile-oxazolone; 2.62 in the data set on biotinyl-Met-oxazolone; 1.71 in the data set with biotinyl-Val-oxazolone; 2.56 in the data set on biotinyl-Leu-oxazolone; 2.12 in the data set with biotinyl-Trp-oxazolone.
For “AUGCACCUAGGUCAUCGGGUG [Fam2.2 aminoacylation ribozyme variant]”, the self-aminoacylation was found to be 30.1 in the data set with biotinyl-Phe-oxazolone; 4.06 in the data set on biotinyl-Ile-oxazolone; 5.65 in the data set on biotinyl-Met-oxazolone; 4.11 with biotinyl-Val-oxazolone; 6.25 with biotinyl-Leu-oxazolone; 6.01 in the data set on biotinyl-Trp-oxazolone.
